According to patent US20200255543A1 (ROCKEFELLER UNIVERSITY, published 2020):

What was measured:
recombinant human MERTK [1] = molecular target: T1, recombinant human MERTK (human, UniProt Q12866 21-505, limits assumed); experiment: biolayer interferometry, global fit; human MERTK
T1 construct: Analyte in solution in biolayer interferometry; also called hMer
T1 sequence: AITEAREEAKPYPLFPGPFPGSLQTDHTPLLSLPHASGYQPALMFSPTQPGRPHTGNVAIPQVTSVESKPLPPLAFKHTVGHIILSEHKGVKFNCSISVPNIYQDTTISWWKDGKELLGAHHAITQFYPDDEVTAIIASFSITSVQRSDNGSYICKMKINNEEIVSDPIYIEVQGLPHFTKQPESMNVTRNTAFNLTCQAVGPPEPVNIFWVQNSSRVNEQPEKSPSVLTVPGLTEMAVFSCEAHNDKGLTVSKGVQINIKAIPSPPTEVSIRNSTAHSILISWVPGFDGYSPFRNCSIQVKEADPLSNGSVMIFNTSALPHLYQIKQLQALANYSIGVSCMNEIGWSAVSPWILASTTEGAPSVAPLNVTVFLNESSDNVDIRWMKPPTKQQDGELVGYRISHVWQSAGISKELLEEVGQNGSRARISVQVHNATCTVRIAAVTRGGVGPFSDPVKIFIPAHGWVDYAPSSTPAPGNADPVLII
Description: (§1) FIG. 7: M19 binds to human MERTK with high affinity. A diagram showing antibody binding kinetics for M19 (Mer-M19) against human MERTK (hMer) using biolayer interferometry. Purified M19 was loaded on an AMQ sensor at a concentration of 1 microgram/mL to test binding against analytes in solution. All analytes were prepared at 5 nM with a 2-fold dilution series for a total of 7 concentrations. Kinetic fits were calculated using a 1:1 model, with Local fits for each concentration as well as an overall global fit.

recombinant mouse MERTK [2] = molecular target: T2, recombinant mouse MERTK (mouse, UniProt Q60805 23-496, limits assumed); experiment: biolayer interferometry, global fit; mouse MERTK
T2 construct: Analyte in solution in biolayer interferometry; also called msMer; murine MERTK
T2 sequence (looked up): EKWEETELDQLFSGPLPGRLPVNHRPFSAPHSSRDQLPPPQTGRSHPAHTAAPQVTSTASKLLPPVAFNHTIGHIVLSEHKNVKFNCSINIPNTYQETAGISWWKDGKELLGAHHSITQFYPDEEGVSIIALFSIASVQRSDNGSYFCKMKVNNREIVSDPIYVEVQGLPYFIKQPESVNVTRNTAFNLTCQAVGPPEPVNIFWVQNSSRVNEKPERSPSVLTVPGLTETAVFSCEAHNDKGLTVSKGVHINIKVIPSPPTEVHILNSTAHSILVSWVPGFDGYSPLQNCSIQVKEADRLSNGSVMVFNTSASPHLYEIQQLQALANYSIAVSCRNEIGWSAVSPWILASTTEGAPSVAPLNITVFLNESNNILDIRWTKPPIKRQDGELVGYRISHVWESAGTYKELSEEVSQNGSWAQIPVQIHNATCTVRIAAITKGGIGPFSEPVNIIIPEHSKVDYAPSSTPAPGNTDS
Description: as §1, with “8:” for “7:”, “murine” for “human”, “(msMer)” for “(hMer)”, “Global” for “global”

recombinant mouse MERTK [3] = molecular target: T2, recombinant mouse MERTK; experiment: biolayer interferometry, M19 loaded on AMQ sensor at 1 ug/mL, msMer in solution at 5 nM, local 1:1 fit
Description: as §1, with “8:” for “7:”, “murine” for “human”, “(msMer)” for “(hMer)”, “Global” for “global”
(§2) To characterize the binding affinity of M19 antibody against recombinant human and mouse MERTK, biomolecular interaction analysis was performed using biolayer interferometry (FIG. 7 and FIG. 8). Binding was observed between M19 and both mouse and human MERTK.

recombinant human MERTK [4] = molecular target: T1, recombinant human MERTK; experiment: biolayer interferometry, M19 loaded on AMQ sensor at 1 ug/mL, hMer in solution at 2.5 nM, local 1:1 fit
Description: as §1, §2

recombinant mouse MERTK [5] = molecular target: T2, recombinant mouse MERTK; experiment: biolayer interferometry, M19 loaded on AMQ sensor, msMer analyte from 5 nM in 2-fold dilutions, 1:1 model, global fit
Description: as §1, with “8:” for “7:”, “murine” for “human”, “(msMer)” for “(hMer)”, “Global” for “global”

recombinant human MERTK [6] = molecular target: T1, recombinant human MERTK; experiment: biolayer interferometry, M19 loaded on AMQ sensor at 1 ug/mL, hMer in solution at 1.25 nM, local 1:1 fit
Description: as §1, §2

recombinant mouse MERTK [7] = molecular target: T2, recombinant mouse MERTK; experiment: biolayer interferometry, M19 loaded on AMQ sensor at 1 ug/mL, msMer in solution at 2.5 nM, local 1:1 fit
Description: as §1, with “8:” for “7:”, “murine” for “human”, “(msMer)” for “(hMer)”, “Global” for “global”
as §2

recombinant human MERTK [8] = molecular target: T1, recombinant human MERTK; experiment: biolayer interferometry, M19 loaded on AMQ sensor at 1 ug/mL, hMer in solution at 0.1563 nM, local 1:1 fit
Description: as §1, §2

recombinant mouse MERTK [9] = molecular target: T2, recombinant mouse MERTK; experiment: biolayer interferometry, M19 loaded on AMQ sensor at 1 ug/mL, msMer in solution at 0.625 nM, local 1:1 fit
Description: as §1, with “8:” for “7:”, “murine” for “human”, “(msMer)” for “(hMer)”, “Global” for “global”
as §2

recombinant mouse MERTK [10] = molecular target: T2, recombinant mouse MERTK; experiment: biolayer interferometry, M19 loaded on AMQ sensor at 1 ug/mL, msMer in solution at 5 to 0.0781 nM, global 1:1 fit
Description: as §1, with “8:” for “7:”, “murine” for “human”, “(msMer)” for “(hMer)”, “Global” for “global”
as §2

Kd (recombinant human MERTK [1]): ~0.3 nM | Kd (recombinant mouse MERTK [2]): ~0.3 nM | Kd (recombinant mouse MERTK [3]): 0.354 nM | koff (recombinant mouse MERTK [3]): 0.00133 s⁻¹ | kon (recombinant mouse MERTK [3]): 3.77e+06 M⁻¹ s⁻¹ | Kd (recombinant human MERTK [4]): 0.339 nM | koff (recombinant human MERTK [4]): 0.000899 s⁻¹ | kon (recombinant human MERTK [4]): 2.65e+06 M⁻¹ s⁻¹ | Kd (recombinant mouse MERTK [5]): 0.305 nM | Kd (recombinant human MERTK [6]): 0.297 nM | koff (recombinant human MERTK [6]): 0.00102 s⁻¹ | kon (recombinant human MERTK [6]): 3.44e+06 M⁻¹ s⁻¹ | Kd (recombinant mouse MERTK [7]): 0.341 nM | koff (recombinant mouse MERTK [7]): 0.00159 s⁻¹ | kon (recombinant mouse MERTK [7]): 4.66e+06 M⁻¹ s⁻¹ | Kd (recombinant human MERTK [8]): 0.621 nM | koff (recombinant human MERTK [8]): 0.000949 s⁻¹ | kon (recombinant human MERTK [8]): 1.53e+06 M⁻¹ s⁻¹ | Kd (recombinant mouse MERTK [9]): 0.198 nM | koff (recombinant mouse MERTK [9]): 0.00137 s⁻¹ | kon (recombinant mouse MERTK [9]): 6.92e+06 M⁻¹ s⁻¹ | koff (recombinant mouse MERTK [10]): 0.00144 s⁻¹ | kon (recombinant mouse MERTK [10]): 4.71e+06 M⁻¹ s⁻¹
B1: monoclonal antibody M19 (antibody, V domains shown)
VH: EVQLEESGPDLKKPGETVKISCKASNYTFTDYSMHWVKQAPGKGLKWVGWINTDTGEPTYADDFKGRFAFSLETSASTAYLQINNLKNEDTATYFCARWFGAMDYWGQGTSVTVSS
VL: DIVITQSHKFMSTSVGDRVSITCKASQDVTNVVAWYQQKPGQSPKLLIYSASYRYTGVPDRFTGSGSGTDFTFTISSVQAEDLAVYYCQQYYRTPRTFGGGTKLEIKR
notes: Mouse hybridoma monoclonal antibody; Hybridoma supernatant was used in the ELISA screen, purified antibody in biolayer interferometry; also called Mer-M19
